From US20140087995A1 (published 2014)
Numbered stars: 1 amine (or outer) side, 2 acyl side, 3 side chain; on linkers, the order of the positions; unused ones are H or OH. Bridge positions count the residues as written; N and C are the ends. Side chains are listed from the residue outwards. Ends that are not written are not given here. * marks the point of attachment. C20 diacid = O=C(O)CCCCCCCCCCCCCCCCCCC(=O)*; γGlu = O=C(O)[C@H](CCC(=O)[*:2])N[*:1]

T1: rat amylin receptor (rat calcitonin receptor + rat RAMP 3) (rat, UniProt P32214 25-516; Q9JJ73 23-147)
T1 construct: whole, on cells; Used as membranes prepared from the transfected cells (Assay VI); also called rAmylin-R; rat amylin 3(a) receptor
T1 sequence (looked up) 1: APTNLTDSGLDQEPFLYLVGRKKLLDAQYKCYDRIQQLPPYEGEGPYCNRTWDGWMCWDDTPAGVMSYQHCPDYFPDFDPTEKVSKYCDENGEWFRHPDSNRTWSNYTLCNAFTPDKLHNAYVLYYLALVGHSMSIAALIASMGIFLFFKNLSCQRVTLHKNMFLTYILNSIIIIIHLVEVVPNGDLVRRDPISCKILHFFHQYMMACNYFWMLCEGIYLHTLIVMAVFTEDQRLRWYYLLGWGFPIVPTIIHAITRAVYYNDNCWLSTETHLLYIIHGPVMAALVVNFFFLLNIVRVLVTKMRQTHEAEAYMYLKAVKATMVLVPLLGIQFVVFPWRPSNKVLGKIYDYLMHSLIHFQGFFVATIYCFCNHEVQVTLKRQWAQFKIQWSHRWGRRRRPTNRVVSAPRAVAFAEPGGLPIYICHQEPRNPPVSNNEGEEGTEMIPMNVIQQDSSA
T1 sequence (looked up) 2: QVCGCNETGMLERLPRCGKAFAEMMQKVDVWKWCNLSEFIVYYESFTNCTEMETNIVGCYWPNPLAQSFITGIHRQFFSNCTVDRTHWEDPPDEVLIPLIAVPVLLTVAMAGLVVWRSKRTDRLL

T2: human calcitonin receptor (human, UniProt P30988 25-474)
T2 construct: whole, on cells; Used as membranes prepared from the transfected cells (Assay VII); also called hCTR; hCT
T2 sequence (looked up): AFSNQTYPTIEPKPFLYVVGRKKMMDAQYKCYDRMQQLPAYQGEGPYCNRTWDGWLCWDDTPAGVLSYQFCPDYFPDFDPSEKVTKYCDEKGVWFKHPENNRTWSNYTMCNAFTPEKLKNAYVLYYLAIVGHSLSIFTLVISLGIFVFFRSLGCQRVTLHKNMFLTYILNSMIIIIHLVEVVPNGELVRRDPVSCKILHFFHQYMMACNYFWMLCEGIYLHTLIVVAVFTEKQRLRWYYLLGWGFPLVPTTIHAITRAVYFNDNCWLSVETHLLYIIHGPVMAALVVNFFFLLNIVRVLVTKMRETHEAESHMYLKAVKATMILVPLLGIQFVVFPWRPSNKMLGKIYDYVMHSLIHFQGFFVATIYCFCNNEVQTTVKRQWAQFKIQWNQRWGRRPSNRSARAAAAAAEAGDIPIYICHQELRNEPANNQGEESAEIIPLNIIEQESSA

T3: rat calcitonin receptor (rat, UniProt P32214 25-516)
T3 construct: whole, on cells; Used as membranes prepared from the transfected cells (Assay VIII); also called rCTR; rat calcitonin (a) receptor
T3 sequence (looked up): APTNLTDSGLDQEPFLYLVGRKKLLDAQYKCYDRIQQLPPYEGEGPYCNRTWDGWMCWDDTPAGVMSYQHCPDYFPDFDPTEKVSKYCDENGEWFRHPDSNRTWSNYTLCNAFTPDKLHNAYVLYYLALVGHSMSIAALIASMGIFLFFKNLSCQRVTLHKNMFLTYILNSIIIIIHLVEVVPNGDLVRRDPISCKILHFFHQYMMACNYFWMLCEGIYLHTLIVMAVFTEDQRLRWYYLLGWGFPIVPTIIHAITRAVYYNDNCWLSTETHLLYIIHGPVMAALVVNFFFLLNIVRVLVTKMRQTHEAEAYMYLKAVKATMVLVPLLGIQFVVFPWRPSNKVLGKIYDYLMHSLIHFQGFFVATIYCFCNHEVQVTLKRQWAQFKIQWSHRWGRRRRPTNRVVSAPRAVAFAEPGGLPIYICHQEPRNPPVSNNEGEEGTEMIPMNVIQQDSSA


Legend:
[1] = target: T1, rat amylin receptor (rat calcitonin …); experiment: SPA competition binding, displacement of 125I-rat amylin from membranes of BHK tk'ts 13 cells transfected with rat calcitonin receptor + rat RAMP 3 (Assay VI)
[2] = target: T2, human calcitonin receptor; experiment: ratio of IC50 on human calcitonin receptor (Assay VII) to IC50 on human amylin receptor (Assay V)
Method: The resulting pellet was resuspended, homogenized and centrifuged (20.000 rpm, 15 min) in a buffer containing 20 mM Na-HEPES and 0.1 mM EDTA (pH 7.4, buffer 2). The resulting pellet was resuspended in buffer 2 and protein concentration was measured (BCA protein Assay, Pierce). The homogenate was kept cold during the whole procedure. The membranes were kept at −80° C. until use. The assay was performed in a 384 well Optiplate (PerkinElmer) in a total volume of 40 ul. Membranes were mixed with SPA beads. Final concentration of membranes 35 ng/μL final and SPA beads was 0.05 mg/well. Test-compounds were dissolved in DMSO and further diluted in assay buffer (50 mM Hepes, pH 7.4, 1 mM CaCl2, 5 mM MgCl₂, 0.1% OA and 0.02% Tween20). […] The final mixture was incubated with shaking at 400 rpm for 120 min at 25° C. prior to centrifugation (1500 rpm, 10 min). Samples were analyzed on TopCounter™ (Packard). The IC₅₀ was calculated using (one site binding competition analysis) GraphPad Prism5 as a measure of receptor affinity.
Membranes were prepared in the following way; the cells were rinsed with PBS and incubated with Versene for approximately 5 min before harvesting. The cells were flushed with PBS and the cell-suspension was centrifuged for 5 min at 1000 rpm. Cells were homogenized (Ultrathurrax) in a buffer containing 20 mM Na-HEPES and 10 mM EDTA (pH 7.4) and centrifuged at 20.000 rpm for 15 min. The resulting pellet was resuspended, homogenized and centrifuged (20.000 rpm, 15 min) in a buffer containing 20 mM Na-HEPES and 0.1 mM EDTA (pH 7.4, buffer 2). The resulting pellet was resuspended in buffer 2 and protein concentration was measured (BCA protein Assay, Pierce). The homogenate was kept cold during the whole procedure. The membranes were kept at −80° C. until use. Assay was performed in a 384 well Optiplate (PerkinElmer) in a total volume of 40 ul. Membranes were mixed with SPA beads.

rat calcitonin receptor [3] = target: T3, rat calcitonin receptor; experiment: SPA competition binding, displacement of 125I-calcitonin from membranes of BHK tk'ts 13 cells transfected with rat calcitonin receptor (Assay VIII)
rat calcitonin receptor [4] = target: T3, rat calcitonin receptor; experiment: ratio of IC50 on rat calcitonin receptor (Assay VIII) to IC50 on rat amylin receptor (Assay VI)

Row | Binder | IC50 [1] | Ratio hCT/hAmylin binding [2] | IC50 (rat calcitonin receptor [3]) | Ratio rCT/rAmylin binding (rat calcitonin receptor [4])
1 | K([γGlu-C20 diacid])CNTATCATQRLAHFLRHSSPNFGAIPSSTPVGPNTY-NH2 (disulfide 2-7; N-terminus assumed; SMILES CC[C@H](C)[C@H](NC(=O)[C@H](C)NC(=O)CNC(=O)[C@H](Cc1ccccc1)NC(=O)[C@H](CC(N)=O)NC(=O)[C@@H]1CCCN1C(=O)[C@H](CO)NC(=O)[C@H](CO)NC(=O)[C@H](Cc1c[nH]cn1)NC(=O)[C@H](CCCNC(=N)N)NC(=O)[C@H](CC(C)C)NC(=O)[C@H](Cc1ccccc1)NC(=O)[C@H](Cc1c[nH]cn1)NC(=O)[C@H](C)NC(=O)[C@H](CC(C)C)NC(=O)[C@H](CCCNC(=N)N)NC(=O)[C@H](CCC(N)=O)NC(=O)[C@@H](NC(=O)[C@H](C)NC(=O)[C@@H]1CSSC[C@H](NC(=O)[C@@H](N)CCCCNC(=O)CC[C@H](NC(=O)CCCCCCCCCCCCCCCCCCC(=O)O)C(=O)O)C(=O)N[C@@H](CC(N)=O)C(=O)N[C@@H]([C@@H](C)O)C(=O)N[C@@H](C)C(=O)N[C@@H]([C@@H](C)O)C(=O)N1)[C@@H](C)O)C(=O)N1CCC[C@H]1C(=O)N[C@@H](CO)C(=O)N[C@@H](CO)C(=O)N[C@H](C(=O)N1CCC[C@H]1C(=O)N[C@H](C(=O)NCC(=O)N1CCC[C@H]1C(=O)N[C@@H](CC(N)=O)C(=O)N[C@H](C(=O)N[C@@H](Cc1ccc(O)cc1)C(N)=O)[C@@H](C)O)C(C)C)[C@@H](C)O, not restated for each compound) | 0.125 nM | 24.8 | 9.05 nM | 72.4
2 | K([γGlu-γGlu-C20 diacid])CNTATCATQRLADFLRHSSPNFGAIPSSTNVGPETY-NH2 (disulfide 2-7, not restated for each compound) | 0.324 nM | 49.8 | 31.9 nM | 98.5
3 | K([γGlu-γGlu-C20 diacid])CNTATCATQRLADFLRHSSPNFGAIPSSTNVGPRTY-NH2 (disulfide 2-7, not restated for each compound; also called compound 130) | 0.93 nM | 280 | 223 nM | 240
4 | K([γGlu-γGlu-C20 diacid])CNTATCATQRLANFLRHSSPNFGAIPSSTPVGPRTY-NH2 (disulfide 2-7; N-terminus assumed; SMILES CC[C@H](C)[C@H](NC(=O)[C@H](C)NC(=O)CNC(=O)[C@H](Cc1ccccc1)NC(=O)[C@H](CC(N)=O)NC(=O)[C@@H]1CCCN1C(=O)[C@H](CO)NC(=O)[C@H](CO)NC(=O)[C@H](Cc1c[nH]cn1)NC(=O)[C@H](CCCNC(=N)N)NC(=O)[C@H](CC(C)C)NC(=O)[C@H](Cc1ccccc1)NC(=O)[C@H](CC(N)=O)NC(=O)[C@H](C)NC(=O)[C@H](CC(C)C)NC(=O)[C@H](CCCNC(=N)N)NC(=O)[C@H](CCC(N)=O)NC(=O)[C@@H](NC(=O)[C@H](C)NC(=O)[C@@H]1CSSC[C@H](NC(=O)[C@@H](N)CCCCNC(=O)CC[C@H](NC(=O)CC[C@H](NC(=O)CCCCCCCCCCCCCCCCCCC(=O)O)C(=O)O)C(=O)O)C(=O)N[C@@H](CC(N)=O)C(=O)N[C@@H]([C@@H](C)O)C(=O)N[C@@H](C)C(=O)N[C@@H]([C@@H](C)O)C(=O)N1)[C@@H](C)O)C(=O)N1CCC[C@H]1C(=O)N[C@@H](CO)C(=O)N[C@@H](CO)C(=O)N[C@H](C(=O)N1CCC[C@H]1C(=O)N[C@H](C(=O)NCC(=O)N1CCC[C@H]1C(=O)N[C@@H](CCCNC(=N)N)C(=O)N[C@H](C(=O)N[C@@H](Cc1ccc(O)cc1)C(N)=O)[C@@H](C)O)C(C)C)[C@@H](C)O, not restated for each compound) | 0.381 nM | 48.6 | 52.4 nM | 137

Next, values leading:

Row | IC50 [1] | Ratio hCT/hAmylin binding [2] | IC50 (rat calcitonin receptor [3]) | Ratio rCT/rAmylin binding (rat calcitonin receptor [4]) | Binder
5 | 3.14 nM | 29.1 | 498 nM | 159 | K([γGlu-γGlu-C20 diacid])CNTATCATQRLAEFLRHSSPNFGAIPSSTNVGHETY-NH2 (disulfide 2-7; N-terminus assumed; SMILES CC[C@H](C)[C@H](NC(=O)[C@H](C)NC(=O)CNC(=O)[C@H](Cc1ccccc1)NC(=O)[C@H](CC(N)=O)NC(=O)[C@@H]1CCCN1C(=O)[C@H](CO)NC(=O)[C@H](CO)NC(=O)[C@H](Cc1c[nH]cn1)NC(=O)[C@H](CCCNC(=N)N)NC(=O)[C@H](CC(C)C)NC(=O)[C@H](Cc1ccccc1)NC(=O)[C@H](CCC(=O)O)NC(=O)[C@H](C)NC(=O)[C@H](CC(C)C)NC(=O)[C@H](CCCNC(=N)N)NC(=O)[C@H](CCC(N)=O)NC(=O)[C@@H](NC(=O)[C@H](C)NC(=O)[C@@H]1CSSC[C@H](NC(=O)[C@@H](N)CCCCNC(=O)CC[C@H](NC(=O)CC[C@H](NC(=O)CCCCCCCCCCCCCCCCCCC(=O)O)C(=O)O)C(=O)O)C(=O)N[C@@H](CC(N)=O)C(=O)N[C@@H]([C@@H](C)O)C(=O)N[C@@H](C)C(=O)N[C@@H]([C@@H](C)O)C(=O)N1)[C@@H](C)O)C(=O)N1CCC[C@H]1C(=O)N[C@@H](CO)C(=O)N[C@@H](CO)C(=O)N[C@H](C(=O)N[C@@H](CC(N)=O)C(=O)N[C@H](C(=O)NCC(=O)N[C@@H](Cc1c[nH]cn1)C(=O)N[C@@H](CCC(=O)O)C(=O)N[C@H](C(=O)N[C@@H](Cc1ccc(O)cc1)C(N)=O)[C@@H](C)O)C(C)C)[C@@H](C)O, not restated for each compound)
6 | 0.449 nM | 22.6 | 33.5 nM | 74.7 | K([γGlu-γGlu-C20 diacid])CNTATCATQRLAEFLRHSSPNFGAILSSTPVGPETY-NH2 (disulfide 2-7 (inferred), not restated for each compound)
7 | 0.288 nM | 27.3 | 21 nM | 73 | K([γGlu-γGlu-C20 diacid])CNTATCATQRLAEFLRHSSPNFGAIPSSTNVGPHTY-NH2 (disulfide 2-7 (inferred), not restated for each compound)
